Measurements reported in patent US10464978B2, “Peptides and combination of peptides for use in immunotherapy against ovarian cancer and other cancers” (immatics biotechnologies GmbH, priority 2015, dated 2019).

biological target: HLA-A*02:01 (Homo sapiens, UniProt P04439, D140Y/D185E/D98H/E176V/E277Q/G131W/G231S/I119V/I121R/I166T/I218V/L300P/L318F/N151K/N90K/P208A/P217A/Q86G/Q94H/R138H/R169H/T345S); test: MHC binding assay: UV-ligand exchange with beta2m ELISA (peptide exchange yield); details: binding to HLA-A*02:01
Procedure, shortened: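 Peptide-MHC complexes formed by UV-ligand exchange, a UV-cleavable peptide being replaced by the candidate peptide. Exchange products diluted 100-fold, captured on streptavidin-coated plates for 1h at 37° C, then detected with 2 ug/ml HRP anti-β2m (1h, 37° C) and TMB, absorbance 450 nm; value is exchange yield.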

Row | Substance | Peptide exchange (MHC class I binding score, peptide exchange yield)
1 | 277 (LLPPLESLATV; listed as Homo sapiens) [compound 277] | “++” (≥20% = ++)
2 | 598 (FLFPHSVLV; listed as Homo sapiens) [compound 598] | “+++” (≥50 = +++)
3 | 177 (YLLPEEYTSTL; listed as Homo sapiens) [compound 177] | “++++” (≥75% = ++++)
4 | 151 (KILQQLVTL; listed as Homo sapiens) [compound 151] | “+++” (≥50 = +++)
5 | 140 (YMDAPKAAL; listed as Homo sapiens) [compound 140] | “++” (≥20% = ++)
6 | 385 (SLLEQGLVEA; listed as Homo sapiens) [compound 385] | “++” (≥20% = ++)
7 | 247 (VLLPNDLLEKV; listed as Homo sapiens) [compound 247] | “+++” (≥50 = +++)
8 | 473 (AMATESILHFA; listed as Homo sapiens) [compound 473] | “+++” (≥50 = +++)
9 | 570 (ALANQIPTV; listed as Homo sapiens) [compound 570] | “++” (≥20% = ++)
10 | 382 (ALQNYIKEA; listed as Homo sapiens) [compound 382] | “++” (≥20% = ++)
11 | 255 (VLASYNLTV; listed as Homo sapiens) [compound 255] | “+++” (≥50 = +++)
12 | 273 (NLFQSVREV; listed as Homo sapiens) [compound 273] | “++” (≥20% = ++)
13 | 175 (YLFENISQL; listed as Homo sapiens) [compound 175] | “+++” (≥50 = +++)
14 | 200 (LLFGSVQEV; listed as Homo sapiens) [compound 200] | “+++” (≥50 = +++)
15 | 613 (RLLPPGAVVAV; listed as Homo sapiens) [compound 613] | “+++” (≥50 = +++)
16 | 478 (YLLHEKLNL; listed as Homo sapiens) [compound 478] | “+++” (≥50 = +++)
17 | 118 (KLIDNNINV; listed as Homo sapiens) [compound 118] | “+++” (≥50 = +++)
18 | 28 (QLLDETSAITL; listed as Homo sapiens) [compound 28] | “+++” (≥50 = +++)
19 | 339 (GLWEIENNPTVKA; listed as Homo sapiens) [compound 339] | “++++” (≥75% = ++++)
20 | 537 (TLAPGEVLRSV; listed as Homo sapiens) [compound 537] | “+++” (≥50 = +++)
21 | 499 (KIFDIDEAEEGV; listed as Homo sapiens) [compound 499] | “++” (≥20% = ++)
22 | 136 (YLADPSNLFVV; listed as Homo sapiens) [compound 136] | “+++” (≥50 = +++)
23 | 343 (SLLEVNEESTV; listed as Homo sapiens) [compound 343] | “+++” (≥50 = +++)

Row | Substance | Peptide exchange (MHC class I binding score, peptide exchange yield)
24 | 489 (KMWEELPEVV; listed as Homo sapiens) [compound 489] | “+++” (≥50 = +++)
25 | 18 (YLVAKLVEV; listed as Homo sapiens) [compound 18] | “++” (≥20% = ++)
26 | 358 (ALDEYTSEL; listed as Homo sapiens) [compound 358] | “++++” (≥75% = ++++)
27 | 369 (GLFPEHLIDV; listed as Homo sapiens) [compound 369] | “+++” (≥50 = +++)
28 | 307 (ALPVSLPQI; listed as Homo sapiens) [compound 307] | “+++” (≥50 = +++)
29 | 609 (ALWKQLLEL; listed as Homo sapiens) [compound 609] | “+++” (≥50 = +++)
30 | 53 (KMIETDILQKV; listed as Homo sapiens) [compound 53] | “++++” (≥75% = ++++)
31 | 361 (ALYELEGTTV; listed as Homo sapiens) [compound 361] | “+++” (≥50 = +++)
32 | 230 (ILVDWLVEV; listed as Homo sapiens) [compound 230] | “+” (≥10% = +)
33 | 606 (ALWETEVYI; listed as Homo sapiens) [compound 606] | “+++” (≥50 = +++)
34 | 375 (SLTETIEGV; listed as Homo sapiens) [compound 375] | “++” (≥20% = ++)
35 | 172 (VLYSYTIITV; listed as Homo sapiens) [compound 172] | “++” (≥20% = ++)
36 | 328 (ALNDQVFEI; listed as Homo sapiens) [compound 328] | “+++” (≥50 = +++)
37 | 584 (ALAEVAAMENV; listed as Homo sapiens) [compound 584] | “+++” (≥50 = +++)
38 | 207 (GLTSTNAEV; listed as Homo sapiens) [compound 207] | “++” (≥20% = ++)
39 | 84 (VTFGEKLLGV; listed as Homo sapiens) [compound 84] | “++” (≥20% = ++)
40 | 373 (SLLEDKGLAEV; listed as Homo sapiens) [compound 373] | “++” (≥20% = ++)
41 | 185 (FLIDDKGYTL; listed as Homo sapiens) [compound 185] | “++” (≥20% = ++)
42 | 193 (QLLDADGFLNV; listed as Homo sapiens) [compound 193] | “+++” (≥50 = +++)
43 | 521 (MLLTKLPTI; listed as Homo sapiens) [compound 521] | “+++” (≥50 = +++)
44 | 170 (RLQETLSAA; listed as Homo sapiens) [compound 170] | “+++” (≥50 = +++)
45 | 91 (IMQDFPAEIFL; listed as Homo sapiens) [compound 91] | “++++” (≥75% = ++++)
46 | 335 (YSLSSVVTV; listed as Homo sapiens) [compound 335] | “+++” (≥50 = +++)

Row | Substance | Peptide exchange (MHC class I binding score, peptide exchange yield)
47 | 393 (GLLDTQTSQVLTA; listed as Homo sapiens) [compound 393] | “++” (≥20% = ++)
48 | 450 (FMIDASVHPTL; listed as Homo sapiens) [compound 450] | “+++” (≥50 = +++)
49 | 620 (KLLNKIYEA; listed as Homo sapiens) [compound 620] | “++++” (≥75% = ++++)
50 | 354 (LILEGVDTV; listed as Homo sapiens) [compound 354] | “++” (≥20% = ++)
51 | 384 (ILFANPNIFV; listed as Homo sapiens) [compound 384] | “+++” (≥50 = +++)
52 | 219 (KLSDIGITV; listed as Homo sapiens) [compound 219] | “+++” (≥50 = +++)
53 | 111 (YVWGFYPAEV; listed as Homo sapiens) [compound 111] | “+++” (≥50 = +++)
54 | 522 (TLWYRSPEV; listed as Homo sapiens) [compound 522] | “++” (≥20% = ++)
55 | 378 (ALGYFVPYV; listed as Homo sapiens) [compound 378] | “+++” (≥50 = +++)
56 | 501 (LLDPNVKSIFV; listed as Homo sapiens) [compound 501] | “+++” (≥50 = +++)
57 | 377 (FLLDSSASV; listed as Homo sapiens) [compound 377] | “++” (≥20% = ++)
58 | 285 (QLLHVGVTV; listed as Homo sapiens) [compound 285] | “+++” (≥50 = +++)
59 | 106 (LLYDAVHIVSV; listed as Homo sapiens) [compound 106] | “+++” (≥50 = +++)
60 | 589 (KLYPQLPAEI; listed as Homo sapiens) [compound 589] | “+++” (≥50 = +++)
61 | 367 (SLQNHNHQL; listed as Homo sapiens) [compound 367] | “+++” (≥50 = +++)
62 | 82 (FLSSVTYNL; listed as Homo sapiens) [compound 82] | “+++” (≥50 = +++)
63 | 539 (ALFDAQAQV; listed as Homo sapiens) [compound 539] | “+++” (≥50 = +++)
64 | 55 (SLLDLETLSL; listed as Homo sapiens) [compound 55] | “++++” (≥75% = ++++)
65 | 248 (FLFPNQYVDV; listed as Homo sapiens) [compound 248] | “+++” (≥50 = +++)
66 | 204 (KIAENVEEV; listed as Homo sapiens) [compound 204] | “++” (≥20% = ++)
67 | 492 (SLFDGFADGLGV; listed as Homo sapiens) [compound 492] | “+++” (≥50 = +++)
